Measured values published in US20170107569, “METHOD FOR ATTACHING ONE OR MORE POLYNUCLEOTIDE BINDING PROTEINS TO A TARGET POLYNUCLEOTIDE” (Oxford Nanopore Technologies Ltd., published 2017).

T1: T4 Dda-E94C/C109A/C136A/A360C helicase (UniProt P32270 SEQ:1-439, E94C/C109A/C136A/A360C)
T1 sequence: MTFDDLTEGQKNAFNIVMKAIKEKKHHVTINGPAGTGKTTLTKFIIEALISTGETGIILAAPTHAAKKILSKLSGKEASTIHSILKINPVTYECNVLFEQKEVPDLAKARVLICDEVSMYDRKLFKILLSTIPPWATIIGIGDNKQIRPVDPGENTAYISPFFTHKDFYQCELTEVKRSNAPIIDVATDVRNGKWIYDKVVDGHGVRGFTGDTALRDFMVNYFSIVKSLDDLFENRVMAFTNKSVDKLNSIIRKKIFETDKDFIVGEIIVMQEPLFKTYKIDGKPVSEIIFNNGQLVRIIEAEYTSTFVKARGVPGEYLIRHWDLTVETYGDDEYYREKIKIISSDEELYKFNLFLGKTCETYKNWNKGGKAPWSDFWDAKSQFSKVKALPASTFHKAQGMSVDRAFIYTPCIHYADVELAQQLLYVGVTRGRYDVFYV

B1: DNA Y-adapter (Example 2) (mixed)
DNA 1: TTTTTTTTTTTTGGTTGTTTCTGTTGGTGCTGATATTGCGGCGTCTGCTTGGGTGTTTAACCT
DNA 2: GGTTAAACACCCAAGCAGACGCCGCAATATCAGCACCAACAGAAACAACCTTTGAGGCGAGCGGTCAA
modifications: 30 iSpC3 at 5' end of SEQ 27; 4 iSp18 between SEQ 27 and SEQ 28; 5' phosphate on SEQ 26
B2: helicase-leader Y-adapter (Example 7) (mixed)
DNA 1: TTTTTTTTTTTTGGTTGTTTCTGTTGGTGCTGATATTGCGGCGTCTGCTTGGGTGTTTAACCT
DNA 2: GCAATATCAGCACCAACAGAAACAACCTTTGAGGCGAGCGGTCAA
modifications: 30 iSpC3 at 5' end of SEQ 27; 4 iSp18 between SEQ 27 and SEQ 28

How the values were obtained:
[1] = biological target: T1, T4 Dda-E94C/C109A/C136A/A360C helicase; test: EMSA; native TBE PAGE; 50 mM HEPES, 100 mM KOAc pH 8, 1 mM EDTA, 100 uM TMAD; 2:1 and 1:1 complexes, single enzyme after KCl/ATP and SPRI; details: tags: closed with TMAD; Y-adapter, partly double-stranded
Experimental: T4 Dda—E94C/C109A/C136A/A360C (3 μM, SEQ ID NO: 24 with mutations E94C/C109A/C136A/A360C) and DNA Y-adapter (500 nM, SEQ ID NO: 26 was hybridised to DNA strand X=30 iSpC3 spacers attached at the 3′ end to the 5′ end SEQ ID NO: 27 which is attached at the 3′ end to 4 iSp18 spacers which are attached at the opposite end to the 5′ end of SEQ ID NO: 28) were mixed in buffer (50 mM HEPES, 100 mM KOAc (pH 8) and EDTA (1 mM) and TMAD (100 μM) were added and incubated for 60 minutes at room temperature. The mixture was then diluted 1:1 in KCl/ATP solution (500 mM KCl, 1 mM ATP final) and incubated at ambient temperature for 25 mins, this mixture was known as sample 3.
The resultant enzyme bound to DNA was then analysed using a TBE PAGE gel as described previously in Example 1 except the gel was run for 45 mins.

[2] = biological target: T1, T4 Dda-E94C/C109A/C136A/A360C helicase; test: EMSA; native TBE PAGE, band C; details: tags: closed with TMAD; Y-adapter, partly double-stranded
Experimental: Each sample run on the gel was 400 nM (5 μL). Lane 1 corresponded to a 100 bp ladder (the number of base pairs that the bands correspond to is shown along the side of the gel). Lane 2 corresponded to helicase leader complex shown in FIG. 12A, without the helicase bound. Lane 3 corresponded to the helicase leader complex shown in FIG. 12A with the helicase bound. Lane 4 corresponded to the polymerase strand complex shown in FIG. 12B without the polymerase bound. Lane 5 corresponded to the polymerase strand complex shown in FIG. 12B with the polymerase bound. Band A corresponded to SEQ ID NO: 43. Band B corresponded to DNA strand X=30 iSpC3 spacers attached at the 3′ end to the 5′ end SEQ ID NO: 27 which is attached at the 3′ end to 4 iSp18 spacers which are attached at the opposite end to the 5′ end of SEQ ID NO: 28. Band C corresponded to the helicase (T4 Dda—E94C/C109A/C136A/A360C) bound to DNA strand X. Band D corresponded to the polymerase strand complex without the enzyme bound (SEQ ID NO: 44 which was attached at its 3′ end to four iSpC3 spacers which were attached at the opposite end to the 5′ end of SEQ ID NO: 45). Band E corresponded to Phi29-A411C/Q560C bound to the polymerase strand complex.
The helicase-leader complex (diagram shown in FIG. 12 section A) was prepared as described in Example 2, except SEQ ID NO: 26 is replaced with SEQ ID NO: 43.

| Binder | binding result [1] | binding result [2] |
| --- | --- | --- |
| B1 | binds |  |
| B2 |  | binds |
